Here are results for 18 variants from the RNAGym collection of RNA variant scans (doi:10.1021/acssynbio.7b00057).

To fix the notation:
B1: Pistol ribozyme (parent)
chain: GGGUCGUUGUUCCAUAAUCGCGUGGAUAUGGCACGCAAGUUUCUACCGGGCACCGUAAAUGUCCGACUGGAGCCGUUCGGGCGGCUAUAAACAGACCUCAGGCCCGAAGCGUGGCGGCACCUGCCGCCGGUGGUAAAAAAGAUCGGAAGAGCACACGUCU

Variants of B1 are the subject of the data set. Description: aptazyme ON/OFF ratio, guanine; higher = stronger switching; co-transcriptional cleavage with and without guanine.
As to GGGUCGUCAGUACAUAAUCGCGUGGAUAUGGCACGCAAGUUUCUACCGGGCACCGUAAAUGUCCGACUGGAGCCGUUCGGGCGGCUAUAAACAGACCUCAGGCCCGAAGCGUGGCGGCACCUGCCGCCGGUGGUAAAAAAGAUCGGAAGAGCACACGUCU [U8C G9A U10G C12A], the “aptazyme ON/OFF ratio” value was found to be 1.16.

On to GGGUCGUCACGGCAUAAUCGCGUGGAUAUGGCACGCAAGUUUCUACCGGGCACCGUAAAUGUCCGACUGGAGCCGUUCGGGCGGCUAUAAACAGACCUCAGGCCCGAAGCGUGGCGGCACCUGCCGCCGGUGGUAAAAAAGAUCGGAAGAGCACACGUCU [U8C G9A U10C U11G C12G], for which the “aptazyme ON/OFF ratio” value worked out at 1.27.

As for GGGUCGUCACGUCAUAAUCGCGUGGAUAUGGCACGCAAGUUUCUACCGGGCACCGUAAAUGUCCGACUGGAGCCGUUCGGGCGGCUAUAAACAGACCUCAGGCCCGAAGCGUGGCGGCACCUGCCGCCGGUGGUAAAAAAGAUCGGAAGAGCACACGUCU [U8C G9A U10C U11G C12U], the “aptazyme ON/OFF ratio” value was 1.29.

As to GGGUCGUCACGAUAUAAUCGCGUGGAUAUGGCACGCAAGUUUCUACCGGGCACCGUAAAUGUCCGACUGGAGCCGUUCGGGCGGCUAUAAACAGACCUCAGGCCCGAAGCGUGGCGGCACCUGCCGCCGGUGGUAAAAAAGAUCGGAAGAGCACACGUCU [U8C G9A U10C U11G C12A C13U], the “aptazyme ON/OFF ratio” value is 1.4.

As for GGGUCGUCACGAGAUAAUCGCGUGGAUAUGGCACGCAAGUUUCUACCGGGCACCGUAAAUGUCCGACUGGAGCCGUUCGGGCGGCUAUAAACAGACCUCAGGCCCGAAGCGUGGCGGCACCUGCCGCCGGUGGUAAAAAAGAUCGGAAGAGCACACGUCU [U8C G9A U10C U11G C12A C13G], the “aptazyme ON/OFF ratio” value was 1.27.

As for GGGUCGUCAGUAUAUAAUCGCGUGGAUAUGGCACGCAAGUUUCUACCGGGCACCGUAAAUGUCCGACUGGAGCCGUUCGGGCGGCUAUAAACAGACCUCAGGCCCGAAGCGUGGCGGCACCUGCCGCCGGUGGUAAAAAAGAUCGGAAGAGCACACGUCU [U8C G9A U10G C12A C13U], the “aptazyme ON/OFF ratio” value is 1.28.

Turning to GGGUCGUCAGUAGAUAAUCGCGUGGAUAUGGCACGCAAGUUUCUACCGGGCACCGUAAAUGUCCGACUGGAGCCGUUCGGGCGGCUAUAAACAGACCUCAGGCCCGAAGCGUGGCGGCACCUGCCGCCGGUGGUAAAAAAGAUCGGAAGAGCACACGUCU [U8C G9A U10G C12A C13G], the “aptazyme ON/OFF ratio” value stood at 1.1.

Take GGGUCGUCAGUAAAUAAUCGCGUGGAUAUGGCACGCAAGUUUCUACCGGGCACCGUAAAUGUCCGACUGGAGCCGUUCGGGCGGCUAUAAACAGACCUCAGGCCCGAAGCGUGGCGGCACCUGCCGCCGGUGGUAAAAAAGAUCGGAAGAGCACACGUCU [U8C G9A U10G C12A C13A]: the “aptazyme ON/OFF ratio” value is 1.27.

In the case of GGGUCGUCACGUGAUAAUCGCGUGGAUAUGGCACGCAAGUUUCUACCGGGCACCGUAAAUGUCCGACUGGAGCCGUUCGGGCGGCUAUAAACAGACCUCAGGCCCGAAGCGUGGCGGCACCUGCCGCCGGUGGUAAAAAAGAUCGGAAGAGCACACGUCU [U8C G9A U10C U11G C12U C13G], the “aptazyme ON/OFF ratio” value was 1.15.

As for GGGUCGUCACGUAAUAAUCGCGUGGAUAUGGCACGCAAGUUUCUACCGGGCACCGUAAAUGUCCGACUGGAGCCGUUCGGGCGGCUAUAAACAGACCUCAGGCCCGAAGCGUGGCGGCACCUGCCGCCGGUGGUAAAAAAGAUCGGAAGAGCACACGUCU [U8C G9A U10C U11G C12U C13A], the “aptazyme ON/OFF ratio” value was 1.42.

As to GGGUCGUCACGUUAUAAUCGCGUGGAUAUGGCACGCAAGUUUCUACCGGGCACCGUAAAUGUCCGACUGGAGCCGUUCGGGCGGCUAUAAACAGACCUCAGGCCCGAAGCGUGGCGGCACCUGCCGCCGGUGGUAAAAAAGAUCGGAAGAGCACACGUCU [U8C G9A U10C U11G C12U C13U], the “aptazyme ON/OFF ratio” value is 1.51.

As for GGGUCGUCAGUCCAUAAUCGCGUGGAUAUGGCACGCAAGUUUCUACCGGGCACCGUAAAUGUCCGACUGGAGCCGUUCGGGCGGCUAUAAACAGACCUCAGGCCCGAAGCGUGGCGGCACCUGCCGCCGGUGGUAAAAAAGAUCGGAAGAGCACACGUCU [U8C G9A U10G], the “aptazyme ON/OFF ratio” value came out at 1.57.

Regarding GGGUCGUCACGGAAUAAUCGCGUGGAUAUGGCACGCAAGUUUCUACCGGGCACCGUAAAUGUCCGACUGGAGCCGUUCGGGCGGCUAUAAACAGACCUCAGGCCCGAAGCGUGGCGGCACCUGCCGCCGGUGGUAAAAAAGAUCGGAAGAGCACACGUCU [U8C G9A U10C U11G C12G C13A], the “aptazyme ON/OFF ratio” value is 1.42.

As for GGGUCGUCACGGGAUAAUCGCGUGGAUAUGGCACGCAAGUUUCUACCGGGCACCGUAAAUGUCCGACUGGAGCCGUUCGGGCGGCUAUAAACAGACCUCAGGCCCGAAGCGUGGCGGCACCUGCCGCCGGUGGUAAAAAAGAUCGGAAGAGCACACGUCU [U8C G9A U10C U11G C12G C13G], the “aptazyme ON/OFF ratio” value stood at 1.23.

GGGUCGUCACGGUAUAAUCGCGUGGAUAUGGCACGCAAGUUUCUACCGGGCACCGUAAAUGUCCGACUGGAGCCGUUCGGGCGGCUAUAAACAGACCUCAGGCCCGAAGCGUGGCGGCACCUGCCGCCGGUGGUAAAAAAGAUCGGAAGAGCACACGUCU [U8C G9A U10C U11G C12G C13U]: the “aptazyme ON/OFF ratio” value turned out to be 1.14.

GGGUCGUCACGCUAUAAUCGCGUGGAUAUGGCACGCAAGUUUCUACCGGGCACCGUAAAUGUCCGACUGGAGCCGUUCGGGCGGCUAUAAACAGACCUCAGGCCCGAAGCGUGGCGGCACCUGCCGCCGGUGGUAAAAAAGAUCGGAAGAGCACACGUCU [U8C G9A U10C U11G C13U]: the “aptazyme ON/OFF ratio” value turned out to be 1.35.

As to GGGUCGUCACGCAAUAAUCGCGUGGAUAUGGCACGCAAGUUUCUACCGGGCACCGUAAAUGUCCGACUGGAGCCGUUCGGGCGGCUAUAAACAGACCUCAGGCCCGAAGCGUGGCGGCACCUGCCGCCGGUGGUAAAAAAGAUCGGAAGAGCACACGUCU [U8C G9A U10C U11G C13A], the “aptazyme ON/OFF ratio” value is 1.2.

Regarding GGGUCGUCACGCGAUAAUCGCGUGGAUAUGGCACGCAAGUUUCUACCGGGCACCGUAAAUGUCCGACUGGAGCCGUUCGGGCGGCUAUAAACAGACCUCAGGCCCGAAGCGUGGCGGCACCUGCCGCCGGUGGUAAAAAAGAUCGGAAGAGCACACGUCU [U8C G9A U10C U11G C13G], the “aptazyme ON/OFF ratio” value was 1.44.
